Experimental data reported in US6342394.

Target: human steroid 21-hydroxylase (21-OH), 125I-labelled (human) (UniProt P08686)
Experiment: 125I-21-OH + protein A; competitor: autoantibodies in pooled patient sera; irrelevant control Fab

UniProt P08686, sequence (P08686 whole entry): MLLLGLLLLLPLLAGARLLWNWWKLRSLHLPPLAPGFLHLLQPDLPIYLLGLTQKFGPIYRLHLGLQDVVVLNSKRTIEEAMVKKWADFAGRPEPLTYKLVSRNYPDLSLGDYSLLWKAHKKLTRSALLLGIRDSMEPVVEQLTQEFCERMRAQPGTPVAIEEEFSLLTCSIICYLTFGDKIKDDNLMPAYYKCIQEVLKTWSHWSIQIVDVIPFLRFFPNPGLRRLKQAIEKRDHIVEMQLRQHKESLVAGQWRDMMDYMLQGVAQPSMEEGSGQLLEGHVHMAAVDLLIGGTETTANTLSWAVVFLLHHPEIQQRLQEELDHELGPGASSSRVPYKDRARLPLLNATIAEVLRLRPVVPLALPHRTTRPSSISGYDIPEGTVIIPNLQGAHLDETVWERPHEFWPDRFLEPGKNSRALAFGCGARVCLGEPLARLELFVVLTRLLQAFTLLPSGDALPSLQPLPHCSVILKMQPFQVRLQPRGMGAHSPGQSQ

For “control Fab from a TSH receptor (TSHR) mouse monoclonal antibody”, the % inhibition of 125I-21-hydroxylase binding was under 15%.
